Laboratory results taken from patent US20210063414A1, “METHODS FOR PREVENTING AND/OR TREATING BONE LOSS CONDITIONS BY MODULATING IRISIN” (Dana-Farber Cancer Institute, Inc., priority 2018, published 2021).

Molecular target: integrin αV/β5 (Homo sapiens, UniProt P06756+P18084)
Assay: FAK phosphorylation in HEK293T cells with forced expression of integrin αV/β5
Type: cell-based
Design: expressed in transfected cells; host or cells: HEK293T
Settings: HEK293T, forced expression of integrin αV/β5, irisin 5 minutes
Description: 100 nM irisin was incubated with 5 nM indicated his-tag integrins followed by immunoprecipitation using Ni-NTA agaroses. Precipitated integrins and co-precipitated irisin were analyzed by immunoblot analysis. […] HEK293T cells were seeded and incubated until 50% cell density. The cells were transfected with 0.1 μg plasmids of indicated integrins. After 48 hours, the cells were incubated with Freestyle293 medium for 3 hours and were treated with indicated concentration of irisin for 5 minutes. Cells were lysed to detect the indicated protein level using immunoblot analysis. […] Sclerostin mRNA level was analyzed by qRT-PCR. […]
100 nM irisin was incubated with 5 nM indicated his-tag integrins followed by immunoprecipitation using Ni-NTA agaroses. Precipitated integrins and co-precipitated irisin were analyzed by immunoblot analysis. […] Cells were treated and analyzed as FIG. 14B except using plasmids encoding integrin α5/β1 or integrin α11/β1 (FIG. 15C) integrin αV/β1(FIG. 15D).
MLO-Y4 cells were treated and analyzed as described in FIG. 5A with addition of pretreatment of control RGD peptide, cyclo RGDyK (cRGDyK), or SB273005. […] HEK293 cells were treated and analyzed as described in FIG. 14B except the treatment of different dose of cyclo RGDyK. […] 8 weeks old male mice were treated and analyzed as described in FIG. 5D except the additional group with co-injection of 1 mg/kg SB273005. […]

Chain of integrin αV/β5 (P06756 31-889 limits assumed): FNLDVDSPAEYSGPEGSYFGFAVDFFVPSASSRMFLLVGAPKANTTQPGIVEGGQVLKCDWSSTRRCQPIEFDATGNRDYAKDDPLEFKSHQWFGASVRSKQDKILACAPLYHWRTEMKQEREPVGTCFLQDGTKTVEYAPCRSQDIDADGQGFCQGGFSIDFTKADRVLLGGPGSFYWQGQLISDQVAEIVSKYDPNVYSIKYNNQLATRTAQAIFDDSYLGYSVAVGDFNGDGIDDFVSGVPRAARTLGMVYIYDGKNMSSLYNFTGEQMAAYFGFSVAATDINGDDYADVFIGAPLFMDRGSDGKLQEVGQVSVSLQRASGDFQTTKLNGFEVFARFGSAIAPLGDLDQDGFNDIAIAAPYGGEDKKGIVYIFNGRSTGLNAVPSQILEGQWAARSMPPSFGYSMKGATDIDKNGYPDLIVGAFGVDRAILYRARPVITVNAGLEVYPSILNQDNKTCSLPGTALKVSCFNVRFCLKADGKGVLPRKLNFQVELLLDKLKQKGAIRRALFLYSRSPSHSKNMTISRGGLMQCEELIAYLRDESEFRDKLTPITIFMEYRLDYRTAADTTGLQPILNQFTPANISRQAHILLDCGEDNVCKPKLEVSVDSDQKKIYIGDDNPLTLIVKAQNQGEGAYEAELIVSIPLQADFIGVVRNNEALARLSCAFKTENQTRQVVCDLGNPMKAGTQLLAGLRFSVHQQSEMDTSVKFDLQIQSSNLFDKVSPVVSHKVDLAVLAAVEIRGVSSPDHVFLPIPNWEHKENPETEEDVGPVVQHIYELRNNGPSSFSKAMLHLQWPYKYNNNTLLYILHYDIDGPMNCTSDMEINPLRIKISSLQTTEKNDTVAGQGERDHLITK
Chain of integrin αV/β5 (P06756 891-1048 partner limits assumed): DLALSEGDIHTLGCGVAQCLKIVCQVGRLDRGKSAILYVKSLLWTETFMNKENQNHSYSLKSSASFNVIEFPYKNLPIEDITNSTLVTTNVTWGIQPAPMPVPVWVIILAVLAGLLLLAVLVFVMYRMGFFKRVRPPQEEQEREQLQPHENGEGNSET
Chain of integrin αV/β5 (P18084 24-799): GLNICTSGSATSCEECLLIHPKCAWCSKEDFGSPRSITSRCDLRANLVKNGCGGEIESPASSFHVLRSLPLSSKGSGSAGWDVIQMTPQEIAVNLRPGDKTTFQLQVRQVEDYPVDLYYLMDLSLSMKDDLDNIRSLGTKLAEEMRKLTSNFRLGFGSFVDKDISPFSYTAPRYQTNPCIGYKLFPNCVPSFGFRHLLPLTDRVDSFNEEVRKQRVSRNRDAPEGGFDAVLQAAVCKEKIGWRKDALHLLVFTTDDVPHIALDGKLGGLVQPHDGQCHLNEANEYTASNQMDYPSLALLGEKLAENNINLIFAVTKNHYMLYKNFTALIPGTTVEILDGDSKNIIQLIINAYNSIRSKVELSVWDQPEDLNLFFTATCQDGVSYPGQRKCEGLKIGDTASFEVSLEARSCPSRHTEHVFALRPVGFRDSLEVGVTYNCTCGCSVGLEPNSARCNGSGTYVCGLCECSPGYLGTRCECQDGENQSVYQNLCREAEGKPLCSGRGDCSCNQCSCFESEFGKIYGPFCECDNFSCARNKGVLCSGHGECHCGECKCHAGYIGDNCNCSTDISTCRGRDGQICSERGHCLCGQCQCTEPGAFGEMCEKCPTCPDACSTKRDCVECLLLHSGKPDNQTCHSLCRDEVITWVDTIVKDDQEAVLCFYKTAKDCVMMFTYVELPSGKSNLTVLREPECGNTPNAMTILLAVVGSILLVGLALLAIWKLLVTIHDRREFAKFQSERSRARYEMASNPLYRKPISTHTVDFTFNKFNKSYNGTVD

B1: irisin: secreted cleaved form of FNDC5; recombinant human/mouse irisin with C-terminal his tag produced in HEK293 cells (protein)
chain: DSPSAPVNVTVRHLKANSAVVSWDVLEDEVVIGFAISQQKKDVRMLRFIQEVNTTTRSCALWDLEEDTEYIVHVQAISIQGQSPASEPVLFKTPREAEKMASKNKDEVTMKE
modifications: left off: small tags and cut ends
notes: secreted cleaved form of FNDC5; recombinant human/mouse irisin with C-terminal his tag produced in HEK293 cells
- phosphorylation of FAK upon irisin treatment: enhanced level of phosphorylation of FAK
